For assay [1], the target named is Type I collagen (Nitta Gelatin Inc., type I-A: porcine origin) (porcine). As to the kind of experiment: solid-phase binding assay on coated type I collagen, detection with anti-FLAG antibody M2.
Assay [2] has as its target Gelatin (Sigma, G1890-100G: porcine origin) (porcine). The assay is described as follows: solid-phase binding assay on coated gelatin, detection with anti-laminin α5 antibody 5D6.
Assay [3] deals with Type I collagen (Nitta Gelatin Inc., type I-A: porcine origin) (porcine). The assay is described as follows: solid-phase binding assay on coated type I collagen, detection with anti-laminin α5 antibody 5D6.

In turn, “CBD-fused laminin 111E8 fragment 111βγ (from UniProt P25391 1878-2700)” came in with a fold binding activity against the form with a single CBD (111β) in assay [1] greater than 10 fold.
On to “CBD-fused laminin 121E8 fragment 121βγ (from UniProt P25391 1878-2700)”, for which the fold binding activity against the form with a single CBD (121β) in assay [1] was greater than 10 fold.
For the substance “CBD-fused laminin 211E8 fragment 211βγ (from UniProt P24043 1900-2722)”, the fold binding activity against the form with a single CBD (211β) in assay [1] is greater than 10 fold.
On to “CBD-fused laminin 221E8 fragment 221βγ (from UniProt P24043 1900-2722)”, for which, in assay [1], the fold binding activity against the form with a single CBD (221β) was greater than 10 fold.
The substance “CBD-fused laminin 311E8 fragment 311βγ (from UniProt Q16787 579-1364)” yielded a fold binding activity against the form with a single CBD (311β) in assay [1] greater than 10 fold.
Consider “CBD-fused laminin 321E8 fragment 321βγ (from UniProt Q16787 579-1364)”, for which the fold binding activity against the form with a single CBD (321β) in assay [1] was greater than 10 fold.
The substance “CBD-fused laminin 411E8 fragment 411βγ (from UniProt Q16363 629-1449)” returned a fold binding activity against the form with a single CBD (411β) in assay [1] greater than 10 fold.
In assay [1], “CBD-fused laminin 421E8 fragment 421βγ (from UniProt Q16363 629-1449)” had a fold binding activity against the form with a single CBD (421β) greater than 10 fold.
In turn, “CBD-fused laminin 511E8 fragment CBD-E8(αβγ)” had a fold binding activity against the monovalent forms in assay [2] of 3 fold. In assay [3], this substance yielded a concentration at which the binding activity reached saturation of 10 nM and a fold binding activity against the forms with a single CBD (monovalent forms) of 10 fold.
On the same counts, the results for “CBD-fused laminin 511E8 fragment CBD-E8(βγ) (from UniProt O15230 2534-3327)” are 3 fold, 10 nM and 10 fold.
For “CBD-fused laminin 521E8 fragment 521βγ (from UniProt O15230 2534-3327)”, in assay [1], the fold binding activity against the form with a single CBD (521β) is greater than 10 fold.

(Values after US20160052994A1.)
